“And” between values parts separate entries of the source, which are not always exact repeats. Equal entries are not always repeated.
Key:
[1] = target: HtrACj S197A, expressed without the predicted signal peptide (residues 17-472), protease-inactive mu (Campylobacter jejuni (strain 81-176)); test: cryo-EM structure
[2] = target: HtrACj S197A, proteolytically inactive variant (plasmid pUZCj5) (Campylobacter jejuni (strain NCTC11168)) (UniProt Q0P928); test: SEC; Superose 12HR10/30, 50 mM Na2HPO4/NaH2PO4 pH 7.4, 300 mM NaCl, room temperature, 41 µM HtrA, no substrate; proteins purified under native conditions without refolding step
[3] = target: HtrACj S197A, proteolytically inactive variant (plasmid pUZCj5) (Campylobacter jejuni (strain NCTC11168)) (UniProt Q0P928); test: SEC; Superose 12HR10/30, 50 mM Na2HPO4/NaH2PO4 pH 7.4, 300 mM NaCl, room temperature, 41 µM HtrA, no substrate; S/A mutants purified in presence of urea and refolded
[4] = target: HtrACj S197A, proteolytically inactive variant (plasmid pUZCj5) (Campylobacter jejuni (strain NCTC11168)) (UniProt Q0P928); test: as above; remark: listed apart in the source
[5] = target: HtrACj wild type, proteolytically active (plasmid pUZCj4) (Campylobacter jejuni (strain NCTC11168)) (UniProt Q0P928); test: SEC; Superose 12HR10/30, 50 mM Na2HPO4/NaH2PO4 pH 7.4, 300 mM NaCl, room temperature, 41 µM HtrA, no substrate; proteins purified under native conditions without refolding step
[6] = target: HtrACj wild type, proteolytically active (plasmid pUZCj4) (Campylobacter jejuni (strain NCTC11168)) (UniProt Q0P928); test: SEC; Superose 12HR10/30, 50 mM Na2HPO4/NaH2PO4 pH 7.4, 300 mM NaCl, room temperature; 41 µM HtrA pre-incubated with 41 µM β-casein (molar ratio 1:1) for 10 min at 37°C
[7] = target: HtrACj wild type, proteolytically active (plasmid pUZCj4) (Campylobacter jejuni (strain NCTC11168)) (UniProt Q0P928); test: casein zymography (non-reducing SDS-PAGE); 50 ng purified HtrA in Laemmli buffer on 10% SDS-PAGE gels with 0.1% casein, non-reducing, renatured in 2.5% Triton X-100, developed overnight at 37°C
[8] = target: HtrAHp S221A, proteolytically inactive variant of HtrA from H. pylori 26695 (plasmid pUZ3) (Helicobacter pylori (strain 26695)); test: SEC; Superose 12HR10/30, 50 mM Na2HPO4/NaH2PO4 pH 7.4, 300 mM NaCl, room temperature, 41 µM HtrA, no substrate; S/A mutants purified in presence of urea and refolded
[9] = target: the molecule itself; test: as above

**Q.** For “HtrACj S197A, expressed without the predicted signal peptide (residues 17-472), protease-inactive mu (enzyme)”, which stoichiometry N [1] is on record?
**A.** Its stoichiometry N is 12.

**Q.** What does the source list for “HtrACj S197A, proteolytically inactive variant (plasmid pUZCj5) (from UniProt Q0P928 1-472) (enzyme)”?
**A.** stoichiometry N [2]: 12; stoichiometry N [3]: > 12; stoichiometry N [4]: 12

**Q.** What does the source list for “HtrACj wild type, proteolytically active (plasmid pUZCj4) (from UniProt Q0P928 1-472) (enzyme)”?
**A.** stoichiometry N [5]: 6; stoichiometry N [6]: 6; stoichiometry N [7]: 3

**Q.** “HtrAHp S221A, proteolytically inactive variant of HtrA from H. pylori 26695 (plasmid pUZ3) (enzyme)” was tested. Which stoichiometry N [8] did it give?
**A.** Its stoichiometry N is 3 and 6.

B1: HtrAEc S210A, proteolytically inactive variant of HtrA/DegP from E. coli (plasmid pJS17) (enzyme, UniProt P0C0V0 27-474, looked up)
chain: AETSSATTAQQMPSLAPMLEKVMPSVVSINVEGSTTVNTPRMPRNFQQFFGDDSPFCQEGSPFQSSPFCQGGQGGNGGGQQQKFMALGSGVIIDADKGYVVTNNHVVDNATVIKVQLSDGRKFDAKMVGKDPRSDIALIQIQNPKNLTAIKMADSDALRVGDYTVAIGNPFGLGETVTSGIVSALGRSGLNAENYENFIQTDAAINRGNAGGALVNLNGELIGINTAILAPDGGNIGIGFAIPSNMVKNLTSQMVEYGQVKRGELGIMGTELNSELAKAMKVDAQRGAFVSQVLPNSSAAKAGIKAGDVITSLNGKPISSFAALRAQVGTMPVGSKLTLGLLRDGKQVNVNLELQQSSQNQVDSSSIFNGIEGAEMSNKGKDQGVVVNNVKTGTPAAQIGLKKGDVIIGANQQAVKNIAELRKVLDSKPSVLALNIQRGDSTIYLLMQ
notes: also called S/A mutant of HtrAEc
**Q.** Which “stoichiometry N” value [9] does the source give for B1 here?
**A.** Its value is 6.

Reference: PMC7524362, “Functional analysis and cryo-electron microscopy of Campylobacter jejuni serine protease HtrA” (Gut Microbes, 2020)
